Paper PMC3683248 (Structure (London, England : 1993), 2009)

Experiments:
V3 peptide NY/5 = molecular target: T1, V3 peptide NY/5 (HIV-1 group M subtype B, isolate NY5, strain); experiment: ELISA
T1 chain: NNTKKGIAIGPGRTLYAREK

[1] = molecular target: T2, V3 peptide of HIV-1 clade B strain MN (HIV-1 clade B, isolate MN); experiment: crystal structure
T2 chain: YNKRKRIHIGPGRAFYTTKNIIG

Row | Binder | binding result (V3 peptide NY/5) | binding result [1]
1 | human monoclonal antibody 447-52D (IgG3, lambda) (antibody, V domains shown) VH: EVQLVESGGGLVKPGGSLRLTCVASGFTFSDVWLNWVRQAPGKGLEWVGRIKSRTDGGTTDYAASVKGRFTISRDDSKNTLYLQMNSLKTEDTAVYSCTTDGFIMIRGVSEDYYYYYMDVWGKGTTVTVSS VL: QSVLTQPPSVSAAPGQKVTISCSGSSSNIGNNYVLWYQQFPGTAPKLLIYGNNKRPSGIPDRFSGSKSGTSATLGITGLQTGDEADYFCATWDSGLSADWVFGGGTKLTVL | binds | 
2 | Fab fragment of human monoclonal antibody 537-10D (Fab, V domains shown) VH: QVQLVQSGGGLVQPGGSLRLSCVASGFTFNNYWMSWVRQAPGKGLEWVANIKQDGNDKYYVDSVKGRFTISRDNAKNSLFLQMNSLRAEDTAVYFCAREFSSYTDHLEYYYDYYYMDVWGKGTTVTVSS VL: QSALTQPASVSGSPGQSITISCTGTSTDVNGYNYVSWYQQYAGKAPKLIIFDVSKRPSGVSNRFSGSKSGDTASLTISGLQAEDEADYHCSSYTSSTPYVLFGGGTKLTVL |  | binds
